Experimental data from US20140212406.

Target: plasminogen

B1: rat single-chain tPA with arginine to serine point mutation at position 276 (R276S), 6xHis-tagged (protein)
chain: HHHHHHSYRATCRDEQTQTTYQQHQSWLRPMLRGNRVEYCRCNSGLAQCHSVPVRSCSEPRCFNGGTCQQALYFSDFVCQCPDGFVGKRCDIDTRATCFEGQGITYRGTWSTAENGAECINWNSSALSQKPYSARRPNAIKLGLGNHNYCRNPDRDVRPWCYVFKAGKYTTEFCSTPACPKGPTEDCYVGKGVTYRGTHSFTTSKASCLPWNSMILIGKTYTAWRANSQALGLGRHNYCRNPDGDAKPWCHVMKDRKLTWEYCDMSPCSTCGLRQYKQPLFSIKGGLFTDITSHPWQAAIFVKNKRSPGERFLCGGVLISSCWVLSAAHCFVERFPPHHLKVVLGRTYRVVPGEEEQTFEIEKYIVHKEFDDDTYDNDIALLQLRSDSSQCAQESSSVGTACLPDPDVQLPDWTECELSGYGKHEASSPFFSDRLKEAHVRLYPSSRCTSQHLFNKTITSNMLCAGDTRTGGNQDVHDACQGDSGGPLVCMIDKRMTLLGIISWGLGCGQKDVPGIYTKVTNYLNWIQDNMKQ
  conversion of plasminogen into plasmin (fibrin agarose zymography; PPP-clot lysis): Whereas sc*-tPA is not able to promote alone the conversion of plasminogen into plasmin, its fibrin cofactor partially brings back its plasminogen activation function
